{
  "source": "the supplement of paper PMC9112550",
  "about": "“Optimization of the antimicrobial peptide Bac7 by deep mutational scanning” (BMC Biology, 2022);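 also: peptides expressed intracellularly from a pBAD plasmid library in pooled LB shake-flask culture, induced with 0.3% L-arabinose, DNA abundance read by NGS, three biological replicates, DESeq2 with apeglm shrinkage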",
  "data": [
    {"tested_on": "Escherichia coli TOP10", "experiment": "shrunken log2 fold change of peptide-encoding DNA abundance (4.5 h post-induction vs induction); higher = less antimicrobial activity (less host growth inhibition)", "settings": "time post-induction: 4.5 h; library: site-saturation at positions 5, 18, 19, 20", "values": [
      {"sequence": "RRIRCRPPRLPRPRPRPWAVPRP", "shrunken log2 fold change": 0.0183},
      {"sequence": "RRIRNRPPRLPRPRPRPSSDPRP", "shrunken log2 fold change": -0.171},
      {"sequence": "RRIRARPPRLPRPRPRPMRFPRP", "shrunken log2 fold change": 0.869},
      {"sequence": "RRIRVRPPRLPRPRPRPQKMPRP", "shrunken log2 fold change": -0.234},
      {"sequence": "RRIRWRPPRLPRPRPRPMWKPRP", "shrunken log2 fold change": -0.0109},
      {"sequence": "RRIRKRPPRLPRPRPRPGVGPRP", "shrunken log2 fold change": 0.818},
      {"sequence": "RRIRLRPPRLPRPRPRPAFCPRP", "shrunken log2 fold change": 0.289},
      {"sequence": "RRIRSRPPRLPRPRPRPSRMPRP", "shrunken log2 fold change": -0.205},
      {"sequence": "RRIRLRPPRLPRPRPRPRCRPRP", "shrunken log2 fold change": 0.434},
      {"sequence": "RRIRDRPPRLPRPRPRPDIEPRP", "shrunken log2 fold change": 0.105},
      {"sequence": "RRIRSRPPRLPRPRPRPPCRPRP", "shrunken log2 fold change": 0.426},
      {"sequence": "RRIRARPPRLPRPRPRPDLAPRP", "shrunken log2 fold change": 1.07},
      {"sequence": "RRIRGRPPRLPRPRPRPWMRPRP", "shrunken log2 fold change": 0.444},
      {"sequence": "RRIRNRPPRLPRPRPRPSPCPRP", "shrunken log2 fold change": -0.36},
      {"sequence": "RRIRARPPRLPRPRPRPVRCPRP", "shrunken log2 fold change": 0.966},
      {"sequence": "RRIRMRPPRLPRPRPRPRQDPRP", "shrunken log2 fold change": 0.271},
      {"sequence": "RRIRGRPPRLPRPRPRPIILPRP", "shrunken log2 fold change": 0.197},
      {"sequence": "RRIRKRPPRLPRPRPRPTDEPRP", "shrunken log2 fold change": 0.819},
      {"sequence": "RRIRHRPPRLPRPRPRPFCKPRP", "shrunken log2 fold change": -0.571},
      {"sequence": "RRIRPRPPRLPRPRPRPCYKPRP", "shrunken log2 fold change": -1.32},
      {"sequence": "RRIRLRPPRLPRPRPRPRMVPRP", "shrunken log2 fold change": 0.0504},
      {"sequence": "RRIRVRPPRLPRPRPRPLANPRP", "shrunken log2 fold change": -0.0581},
      {"sequence": "RRIRMRPPRLPRPRPRPPRQPRP", "shrunken log2 fold change": 1.43},
      {"sequence": "RRIRYRPPRLPRPRPRPLVPPRP", "shrunken log2 fold change": -0.539},
      {"sequence": "RRIRSRPPRLPRPRPRPWFVPRP", "shrunken log2 fold change": -0.36},
      {"sequence": "RRIRIRPPRLPRPRPRPPPPPRP", "shrunken log2 fold change": 0.714},
      {"sequence": "RRIRFRPPRLPRPRPRPPSFPRP", "shrunken log2 fold change": -0.259},
      {"sequence": "RRIRMRPPRLPRPRPRPMCCPRP", "shrunken log2 fold change": 0.207},
      {"sequence": "RRIRYRPPRLPRPRPRPQITPRP", "shrunken log2 fold change": -0.918},
      {"sequence": "RRIRDRPPRLPRPRPRPHTCPRP", "shrunken log2 fold change": -0.0522},
      {"sequence": "RRIRIRPPRLPRPRPRPKCCPRP", "shrunken log2 fold change": -0.143},
      {"sequence": "RRIRKRPPRLPRPRPRPARFPRP", "shrunken log2 fold change": 0.396},
      {"sequence": "RRIRCRPPRLPRPRPRPSIIPRP", "shrunken log2 fold change": -0.348},
      {"sequence": "RRIRPRPPRLPRPRPRPFCPPRP", "shrunken log2 fold change": -0.345},
      {"sequence": "RRIRKRPPRLPRPRPRPLSVPRP", "shrunken log2 fold change": -0.00128},
      {"sequence": "RRIRKRPPRLPRPRPRPNGVPRP", "shrunken log2 fold change": 0.0149},
      {"sequence": "RRIRMRPPRLPRPRPRPEAWPRP", "shrunken log2 fold change": 2.15},
      {"sequence": "RRIRTRPPRLPRPRPRPHCCPRP", "shrunken log2 fold change": 0.142},
      {"sequence": "RRIRVRPPRLPRPRPRPSVLPRP", "shrunken log2 fold change": 0.226},
      {"sequence": "RRIRRRPPRLPRPRPRPHQGPRP", "shrunken log2 fold change": 0.0901},
      {"sequence": "RRIRQRPPRLPRPRPRPSACPRP", "shrunken log2 fold change": 0.42},
      {"sequence": "RRIRQRPPRLPRPRPRPHFFPRP", "shrunken log2 fold change": -0.0162},
      {"sequence": "RRIRGRPPRLPRPRPRPAWAPRP", "shrunken log2 fold change": 0.854},
      {"sequence": "RRIRKRPPRLPRPRPRPDCTPRP", "shrunken log2 fold change": 1.22},
      {"sequence": "RRIRGRPPRLPRPRPRPKITPRP", "shrunken log2 fold change": 0.413},
      {"sequence": "RRIRQRPPRLPRPRPRPQCQPRP", "shrunken log2 fold change": 0.05},
      {"sequence": "RRIRGRPPRLPRPRPRPKQYPRP", "shrunken log2 fold change": 0.234},
      {"sequence": "RRIRKRPPRLPRPRPRPEAGPRP", "shrunken log2 fold change": 1.17},
      {"sequence": "RRIRERPPRLPRPRPRPATQPRP", "shrunken log2 fold change": 0.00813},
      {"sequence": "RRIRVRPPRLPRPRPRPWYEPRP", "shrunken log2 fold change": -0.337},
      {"sequence": "RRIRMRPPRLPRPRPRPFSPPRP", "shrunken log2 fold change": -0.189},
      {"sequence": "RRIRIRPPRLPRPRPRPHPNPRP", "shrunken log2 fold change": -0.404},
      {"sequence": "RRIRKRPPRLPRPRPRPYFGPRP", "shrunken log2 fold change": -0.711},
      {"sequence": "RRIRIRPPRLPRPRPRPTVRPRP", "shrunken log2 fold change": 0.158},
      {"sequence": "RRIRQRPPRLPRPRPRPIQEPRP", "shrunken log2 fold change": -0.142},
      {"sequence": "RRIRTRPPRLPRPRPRPCKYPRP", "shrunken log2 fold change": -0.41},
      {"sequence": "RRIRLRPPRLPRPRPRPQDMPRP", "shrunken log2 fold change": -0.169},
      {"sequence": "RRIRPRPPRLPRPRPRPKLEPRP", "shrunken log2 fold change": 0.121},
      {"sequence": "RRIRMRPPRLPRPRPRPMLAPRP", "shrunken log2 fold change": 2.84},
      {"sequence": "RRIRLRPPRLPRPRPRPACAPRP", "shrunken log2 fold change": 0.541},
      {"sequence": "RRIRLRPPRLPRPRPRPYDRPRP", "shrunken log2 fold change": -0.0202},
      {"sequence": "RRIRNRPPRLPRPRPRPNPKPRP", "shrunken log2 fold change": 0.284},
      {"sequence": "RRIRWRPPRLPRPRPRPENAPRP", "shrunken log2 fold change": 0.275},
      {"sequence": "RRIRGRPPRLPRPRPRPGQIPRP", "shrunken log2 fold change": 0.352},
      {"sequence": "RRIRHRPPRLPRPRPRPNMMPRP", "shrunken log2 fold change": -0.263},
      {"sequence": "RRIRLRPPRLPRPRPRPAKIPRP", "shrunken log2 fold change": -0.143},
      {"sequence": "RRIRLRPPRLPRPRPRPLCLPRP", "shrunken log2 fold change": -0.392},
      {"sequence": "RRIRTRPPRLPRPRPRPRCLPRP", "shrunken log2 fold change": -0.0645},
      {"sequence": "RRIRNRPPRLPRPRPRPWLCPRP", "shrunken log2 fold change": 0.00252},
      {"sequence": "RRIRHRPPRLPRPRPRPVVYPRP", "shrunken log2 fold change": -0.186},
      {"sequence": "RRIRCRPPRLPRPRPRPHLEPRP", "shrunken log2 fold change": 0.0414},
      {"sequence": "RRIRHRPPRLPRPRPRPYMPPRP", "shrunken log2 fold change": -0.402},
      {"sequence": "RRIRCRPPRLPRPRPRPEKTPRP", "shrunken log2 fold change": -0.0706},
      {"sequence": "RRIRPRPPRLPRPRPRPFAEPRP", "shrunken log2 fold change": 0.0204},
      {"sequence": "RRIRFRPPRLPRPRPRPAAPPRP", "shrunken log2 fold change": 0.745}
    ]}
  ]
}
